# B1: LRRK2 RocCOR tandem domain (LexA-BD bait, wild type) [human] / itself (parent complex)
# chain: KAVPYNRMKLMIVGNTGSGKTTLLQQLMKTKKSDLGMQSATVGIDVKDWPIQIRDKRKRDLVLNVWDFAGREEFYSTHPHFMTQRALYLAVYDLSKGQAEVDAMKPWLFNIKARASSSPVILVGTHLDVSDEKQRKACMSKITKELLNKRGFPAIRDYHFVNATEESDALAKLRKTIINESLNFKIRDQLVVGQLIPDCYVELEKIILSERKNVPIEFPVIDRKRLLQLVRENQLQLDENELPHAVHFLNESGVLLHFQDPALQLSDLYFVEPKWLCKIMAQILTVKVEGCPKHPKGIISRRDVEKFLSKKRKFPKNYMSQYFKLLEKFQIALPIGEEYLLVPSSLSDHRPVIELPHCENSEIIIRLYEMPYFPMGFWSRLINRLLEISPYMLSGRERALRPNRMYWRQGIYL
# Variants of: B1
# Test: quantitative yeast two-hybrid (Q-YTH); n = 6; read off a plot
row,Variant,percent of parent [%]
1,chain 1 T164A,~110
2,chain 1 T16D,~97
3,chain 1 T16A,~93
4,chain 1 T164D,~98
